Results: paper PMC2810291, “Identification and characterization of endonuclein binding proteins: evidence of modulatory effects on signal transduction and chaperone activity” (BMC Biochemistry, 2009)

Biological target: T1, recombinant endonuclein (human, UniProt Q13610 2-501)
T1 construct: human endonuclein, coding region Asn2-Ser501 of the 2309.2 cDNA, in the vector pT7-PL; also called IEF SSP 9502; PWP1 (yeast homologue's name)
Assay: SPR; BIAcore 2000; endonuclein amine-coupled to a CM5 chip (3302 RU); analytes at 1 μM or 5 μM in 10 mM Hepes, 150 mM NaCl, 5 mM CaCl2, 1 mM EGTA, pH 7.4, 0.005% P20; control flow channel subtracted
Details: both partners purified

binding result: binds
B1: recombinant TIP-1 as fusion protein with glutathion S-transferase (natural protein, UniProt O14907 1-124, looked up)
chain: MSYIPGQPVTAVVQRVEIHKLRQGENLILGFSIGGGIDQDPSQNPFSEDKTDKGIYVTRVSEGGPAEIAGLQIGDKIMQVNGWDMTMVTHDQARKRLTKRSEEVVRLLVTRQSLQKAVQQSMLS
notes: TIP-1, coding region of the cDNA amplified with primers from the start codon (ATG-TCC-TAC-ATC-CCG-GGC-CA) to the stop codon, in pGEX-4T3; pGEX-4T3 is known to place GST at the N-terminus; also called GST-TIP-1; source: E. coli, purified (pGEX, according to the manufacturer)
